In the assay the target is T1, BRCA1-associated protein 1 (BAP1), full-length human (residues 1 to 729) (human, UniProt Q92560 1-729).
T1 sequence: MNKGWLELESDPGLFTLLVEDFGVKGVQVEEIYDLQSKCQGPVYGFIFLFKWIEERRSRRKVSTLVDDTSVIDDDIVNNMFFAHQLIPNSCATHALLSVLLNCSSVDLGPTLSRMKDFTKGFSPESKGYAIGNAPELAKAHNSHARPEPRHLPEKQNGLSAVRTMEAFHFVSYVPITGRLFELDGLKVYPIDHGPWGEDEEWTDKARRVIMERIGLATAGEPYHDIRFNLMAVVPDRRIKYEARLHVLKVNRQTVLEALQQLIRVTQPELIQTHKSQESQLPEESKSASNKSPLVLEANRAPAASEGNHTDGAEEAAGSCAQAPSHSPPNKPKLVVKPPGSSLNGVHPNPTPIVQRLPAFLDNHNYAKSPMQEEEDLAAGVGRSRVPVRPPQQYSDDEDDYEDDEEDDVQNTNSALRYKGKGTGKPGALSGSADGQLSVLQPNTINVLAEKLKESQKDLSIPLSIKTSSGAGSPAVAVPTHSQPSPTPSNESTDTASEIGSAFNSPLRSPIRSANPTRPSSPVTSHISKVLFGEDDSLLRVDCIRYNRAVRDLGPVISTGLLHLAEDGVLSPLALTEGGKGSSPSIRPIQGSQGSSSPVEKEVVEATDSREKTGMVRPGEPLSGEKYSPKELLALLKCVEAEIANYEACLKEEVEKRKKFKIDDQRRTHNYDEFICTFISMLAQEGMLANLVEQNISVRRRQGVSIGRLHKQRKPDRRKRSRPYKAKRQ
Description: cryo-EM structure.

B1: Deubiquitinase adaptor domain (DEUBAD) of additional sex comb-like 1 (ASXL1), residues 237 to 390 (domain or fragment)
chain: PATGQMKRNRGEEIDFETPGSILVNTNLRALINSRTFHALPSHFQQQLLFLLPEVDRQVGTDGLLRLSSSALNNEFFTHAAQSWRERLADGEFTHEMQVRIRQEMEKEKKVEQWKEKFFEDYYGQKLGLTKEESLQQNVGQEEAEIKSGLCVPG
Take B1: the binding result is reported as “binds”.
